B1: PSMB1049 (bispecific antibody, human IgG1, kappa, L234A L235A)
heavy: not shown
light: not shown
chain: QSVLTQPASVSGSPGQSITISCTGTSSDVGGYNYVSWYQQHPGKAPKLMIYEVSNRPSGVSNRFSGSKSGNTASLTISGLQAEDEADYYCSSYTSSYTYVFGTGTKLTVLGGSEGKSSGSGSESKSTGGSEVQLVESGGDLVQPGGSLRLSCAASGFTFNNYNMNWVRQAPGKGLEWVSHISTSSSNKYYADSVKGRFSISRDIAKNSMYLQMNSLRDEDTAVYYCARDGVGADYGDYYYYGMDVWGQGTTVTVSSEPKSSDKTHTCPPCPAPEAAGGPSVFLFPPKPKDTLMISRTPEVTCVVVSVSHEDPEVKFNWYVDGVEVHNAKTKPREEQYNSTYRVVSVLTVLHQDWLNGKEYKCKVSNKALPAPIEKTISKAKGQPREPQVYVLPPSREEMTKNQVSLLCLVKGFYPSDIAVEWESNGQPENNYLTWPPVLDSDGSFFLYSKLTVDKSRWQQGNVFSCSVMHEALHNHYTQKSLSLSPG
notes: HC1 (ZWA): B23B62-Fab; LC2 is NA
B2: PSMB1069 (bispecific antibody, human IgG1, kappa, L234A L235A)
heavy: not shown
light: not shown
chain: QVQLVESGGGEVQPGRSLRLSCAASGFSFSGYGMHWVRQAPGKGLEWVAVMSYDGSNRFYVDSVRGRFSISRDNSKNTLYLQMNSLRPEDTAVYYCARDTVWGSHPDAFDIWGQGTVVTVSSGGSEGKSSGSGSESKSTGGSQSVLTQPPSVSVAPGQTARITCGGNNSGSKSVHWYQQKPGQAPVLVVYDDSDRPSGIPERFSGSNSGNTATLTISRVEAGDEADYYCQVWDSSSDHGVFGGGTKLTVLEPKSSDKTHTCPPCPAPEAAGGPSVFLFPPKPKDTLMISRTPEVTCVVVSVSHEDPEVKFNWYVDGVEVHNAKTKPREEQYNSTYRVVSVLTVLHQDWLNGKEYKCKVSNKALPAPIEKTISKAKGQPREPQVYVLPPSREEMTKNQVSLLCLVKGFYPSDIAVEWESNGQPENNYLTWPPVLDSDGSFFLYSKLTVDKSRWQQGNVFSCSVMHEALHNHYTQKSLSLSPG
notes: as for B1
B3: PSMB1068 (bispecific antibody, human IgG1, kappa, L234A L235A)
heavy: not shown
light: not shown
chain: QVQLQESGGDVVQPGRSLRLSCAASGFSFSGYGLHWVRQAPGRGLEWVTLISYDGSNKYYADSVKGRFTISRDNSKNTLYLQMNSLRAEDTAVYYCAKTTVSDPYYYGMDVWGQGTTVTVSSGGSEGKSSGSGSESKSTGGSSYELTQPPSVSVAPGQTARITCGGNNIGSKSVHWYQQKPGQAPVLVVYDDSDRPSGIPERFSGTNSGNTATLTISRAEAGDEADYYCQVWDSSSDHVVFGGGTKLTVLEPKSSDKTHTCPPCPAPEAAGGPSVFLFPPKPKDTLMISRTPEVTCVVVSVSHEDPEVKFNWYVDGVEVHNAKTKPREEQYNSTYRVVSVLTVLHQDWLNGKEYKCKVSNKALPAPIEKTISKAKGQPREPQVYVLPPSREEMTKNQVSLLCLVKGFYPSDIAVEWESNGQPENNYLTWPPVLDSDGSFFLYSKLTVDKSRWQQGNVFSCSVMHEALHNHYTQKSLSLSPG
notes: as for B1
B4: PSMB1052 (bispecific antibody)
heavy: not shown
light: not shown
chain: SYELTQPPSVSVAPGQTARITCGGNNIGSKSVHWYQQKPGQAPVLVVYDDSDRPSGIPERFSGSNSGNTATLTISRVEAGDEADYYCQVWDSSTDHVVFGGGTKLTVLGGSEGKSSGSGSESKSTGGSEVQLVESGGGVVQPGRSLRLSCAASGFTFSSYGMNWVRQAPGKGLEWVAVTSYDGSNKYYADSVKGRFTISRDISKNTLYLQMSSLRAEDTAVYYCARDPYSSSWNGAFDIWGPGTMVTVSSEPKSSDKTHTCPPCPAPEAAGGPSVFLFPPKPKDTLMISRTPEVTCVVVSVSHEDPEVKFNWYVDGVEVHNAKTKPREEQYNSTYRVVSVLTVLHQDWLNGKEYKCKVSNKALPAPIEKTISKAKGQPREPQVYVLPPSREEMTKNQVSLLCLVKGFYPSDIAVEWESNGQPENNYLTWPPVLDSDGSFFLYSKLTVDKSRWQQGNVFSCSVMHEALHNHYTQKSLSLSPG
notes: as for B1
B5: PSMB1051 (bispecific antibody, human IgG1, kappa, L234A L235A)
heavy: not shown
light: not shown
chain: QSVLTQPPSASGTPGQGVTISCSGSSSNIGSNTVNWFQQLPGTAPKLLIYSDNQRPSGVPDRFSGSKSGTSASLAISGLQSEDEADYYCAAWDDSLNGYVFGTGTKVTVLGGSEGKSSGSGSESKSTGGSEVQLVESGGGVVQPGRSLRLSCAASGFTFITYGMHWVRQAPGKGLEWVAVVSFDESNKYYADSVKGRFTISRDNSKNTLYLQMNSLRAEDTAVYYCARALRDGNNWDYFNGMDVWGQGTTVTVSSEPKSSDKTHTCPPCPAPEAAGGPSVFLFPPKPKDTLMISRTPEVTCVVVSVSHEDPEVKFNWYVDGVEVHNAKTKPREEQYNSTYRVVSVLTVLHQDWLNGKEYKCKVSNKALPAPIEKTISKAKGQPREPQVYVLPPSREEMTKNQVSLLCLVKGFYPSDIAVEWESNGQPENNYLTWPPVLDSDGSFFLYSKLTVDKSRWQQGNVFSCSVMHEALHNHYTQKSLSLSPG
notes: as for B1
B6: PSMB1045 (bispecific antibody, human IgG1, kappa, L234A L235A)
heavy: not shown
light: not shown
chain: SYELMQPPSVSVSPGQTARITCSGDALPKQYAYWYQQKPGQAPVLVIYKDSERPSGIPVRFSGSSSGTTVTLTITGVQAEDEADYYCQSADSSGTYVFGTGTKVTVLGGSEGKSSGSGSESKSTGGSQVQLVESGGGVVQPGRSLRLSCAASGFTFSSYNMNWVRQAPGKGLEWVAIIYYDGSNKYYADSVKGRFTISRDISKNTLYLQMNSLRAEDTAVYYCARERGRDYYGMDVWGQGTTVTVSSEPKSSDKTHTCPPCPAPEAAGGPSVFLFPPKPKDTLMISRTPEVTCVVVSVSHEDPEVKFNWYVDGVEVHNAKTKPREEQYNSTYRVVSVLTVLHQDWLNGKEYKCKVSNKALPAPIEKTISKAKGQPREPQVYVLPPSREEMTKNQVSLLCLVKGFYPSDIAVEWESNGQPENNYLTWPPVLDSDGSFFLYSKLTVDKSRWQQGNVFSCSVMHEALHNHYTQKSLSLSPG
notes: as for B1
B7: BC3B125 (bispecific antibody, human IgG1, kappa, L234A L235A)
chain: EIVLTQSPATLSASPGERVTLSCSASSSVSYMNWYQQKPGQAPRRWIYDSSKLASGVPARFSGSGSGRDYTLTISSLEPEDFAVYYCQQWSRNPPTFGGGTKVEIKGGSEGKSSGSGSESKSTGGSQVQLVQSGAEVKKPGSSVKVSCKASGYTFTRSTMHWVRQAPGQGLEWMGYINPSSAYTNYAQKFQGRVTLTADKSTSTAYMELSSLRSEDTAVYYCASPQVHYDYNGFPYWGQGTLVTVSSEPKSSDKTHTCPPCPAPEAAGGPSVFLFPPKPKDTLMISRTPEVTCVVVSVSHEDPEVKFNWYVDGVEVHNAKTKPREEQYNSTYRVVSVLTVLHQDWLNGKEYKCKVSNKALPAPIEKTISKAKGQPREPQVYVYPPSREEMTKNQVSLTCLVKGFYPSDIAVEWESNGQPENNYKTTPPVLDSDGSFALVSKLTVDKSRWQQGNVFSCSVMHEALHNHYTQKSLSLSPG
heavy: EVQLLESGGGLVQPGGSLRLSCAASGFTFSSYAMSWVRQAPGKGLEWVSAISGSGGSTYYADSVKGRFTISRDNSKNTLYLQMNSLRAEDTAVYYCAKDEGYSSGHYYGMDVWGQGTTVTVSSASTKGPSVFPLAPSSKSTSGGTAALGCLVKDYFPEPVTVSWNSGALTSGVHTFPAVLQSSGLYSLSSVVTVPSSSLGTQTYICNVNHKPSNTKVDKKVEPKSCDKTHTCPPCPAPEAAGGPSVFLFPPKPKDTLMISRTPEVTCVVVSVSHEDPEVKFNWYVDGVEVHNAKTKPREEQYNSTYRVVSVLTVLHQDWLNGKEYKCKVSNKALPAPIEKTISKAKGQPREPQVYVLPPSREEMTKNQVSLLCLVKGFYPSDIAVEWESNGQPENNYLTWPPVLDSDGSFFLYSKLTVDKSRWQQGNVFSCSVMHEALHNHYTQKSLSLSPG
light: EIVLTQSPGTLSLSPGERATLSCRASQSISSSFLTWYQQKPGQAPRLLIYGASSRATGIPDRFSGGGSGTDFTLTISRLEPEDFAVYYCQHYGSSPMYTFGQGTKLEIKRTVAAPSVFIFPPSDEQLKSGTASVVCLLNNFYPREAKVQWKVDNALQSGNSQESVTEQDSKDSTYSLSSTLTLSKADYEKHKVYACEVTHQGLSSPVTKSFNRGEC
notes: IgG1 BCMAxCD3; HC1: CD3B2089 LH scFv-Fc; also called BC3B125.001; B2089 LH

What follows are binders tested against T1, recombinant human PSMA (human, UniProt Q04609 44-750) (assay: SPR (Biacore 8K), antibody captured on anti-Fc, PSMA in solution).
T1 construct: also called hu PSMA; prostate-specific membrane antigen
T1 sequence (Q04609 44-750 limits assumed): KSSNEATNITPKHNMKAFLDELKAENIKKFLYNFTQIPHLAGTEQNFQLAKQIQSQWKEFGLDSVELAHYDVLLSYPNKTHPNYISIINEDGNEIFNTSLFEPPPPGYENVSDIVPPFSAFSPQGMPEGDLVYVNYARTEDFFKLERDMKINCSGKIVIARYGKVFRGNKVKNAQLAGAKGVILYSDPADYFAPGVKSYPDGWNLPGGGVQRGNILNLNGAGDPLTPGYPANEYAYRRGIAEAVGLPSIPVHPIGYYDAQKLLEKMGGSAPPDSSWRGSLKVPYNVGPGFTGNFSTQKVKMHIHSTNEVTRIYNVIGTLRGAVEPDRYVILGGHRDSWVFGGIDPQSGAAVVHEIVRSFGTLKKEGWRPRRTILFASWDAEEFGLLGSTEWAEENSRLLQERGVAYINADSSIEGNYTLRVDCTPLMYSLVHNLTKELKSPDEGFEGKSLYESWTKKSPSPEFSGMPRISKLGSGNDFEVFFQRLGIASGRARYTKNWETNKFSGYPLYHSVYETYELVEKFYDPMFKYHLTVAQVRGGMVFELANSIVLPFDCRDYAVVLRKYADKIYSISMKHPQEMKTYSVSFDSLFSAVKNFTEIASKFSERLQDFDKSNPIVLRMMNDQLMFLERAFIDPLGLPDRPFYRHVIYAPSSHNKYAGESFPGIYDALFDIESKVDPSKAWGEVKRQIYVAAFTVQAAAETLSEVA
Procedure: The antibodies were captured on a goat anti-Fc antibody-modified C1 chip and titrated with 3-fold serial dilutions of PSMA antigen spanning concentrations of 1 nM to 100 nM human PSMA. The association and dissociation were monitored for 3 and 30 minutes, respectively, using a flow rate of 50 μL/min. Raw binding data was referenced by subtracting the analyte binding signals from blanks and analyzed using a 1:1 Langmuir binding model by the Biacore Insight evaluation software to obtain the kinetics which were used to calculate the binding affinity. The anti-PSMA were captured using an anti-human Fc antibody and the antigens were injected in solution.
With B1 the Kd was 0.657 nM, the koff was 7.02e-05 s⁻¹ and the kon was 107000 M⁻¹ s⁻¹.
For B2, the Kd was 1.42 nM, the koff was 0.000197 s⁻¹ and the kon was 139000 M⁻¹ s⁻¹.
In the case of B3, the Kd is reported as 1.11 nM, the koff is reported as 0.000168 s⁻¹ and the kon is reported as 151000 M⁻¹ s⁻¹.
B4 gave a Kd of 1.61 nM, a koff of 0.000315 s⁻¹ and a kon of 196000 M⁻¹ s⁻¹.
In the case of B5, the Kd is reported as 1.01 nM, the koff is reported as 7.75e-05 s⁻¹ and the kon is reported as 77100 M⁻¹ s⁻¹.
B6 gave a Kd of 0.333 nM, a koff of 6.98e-05 s⁻¹ and a kon of 209000 M⁻¹ s⁻¹.

Each binder was assayed against T2, human PSMA on prostate cancer cell lines (22RV1, C4-2B) (human, UniProt Q04609 1-750) (assay: flow cytometry on C4-2B cells, four-parameter fit).
T2 construct: also called PSMA-expressing cell lines
T2 sequence (Q04609 whole entry): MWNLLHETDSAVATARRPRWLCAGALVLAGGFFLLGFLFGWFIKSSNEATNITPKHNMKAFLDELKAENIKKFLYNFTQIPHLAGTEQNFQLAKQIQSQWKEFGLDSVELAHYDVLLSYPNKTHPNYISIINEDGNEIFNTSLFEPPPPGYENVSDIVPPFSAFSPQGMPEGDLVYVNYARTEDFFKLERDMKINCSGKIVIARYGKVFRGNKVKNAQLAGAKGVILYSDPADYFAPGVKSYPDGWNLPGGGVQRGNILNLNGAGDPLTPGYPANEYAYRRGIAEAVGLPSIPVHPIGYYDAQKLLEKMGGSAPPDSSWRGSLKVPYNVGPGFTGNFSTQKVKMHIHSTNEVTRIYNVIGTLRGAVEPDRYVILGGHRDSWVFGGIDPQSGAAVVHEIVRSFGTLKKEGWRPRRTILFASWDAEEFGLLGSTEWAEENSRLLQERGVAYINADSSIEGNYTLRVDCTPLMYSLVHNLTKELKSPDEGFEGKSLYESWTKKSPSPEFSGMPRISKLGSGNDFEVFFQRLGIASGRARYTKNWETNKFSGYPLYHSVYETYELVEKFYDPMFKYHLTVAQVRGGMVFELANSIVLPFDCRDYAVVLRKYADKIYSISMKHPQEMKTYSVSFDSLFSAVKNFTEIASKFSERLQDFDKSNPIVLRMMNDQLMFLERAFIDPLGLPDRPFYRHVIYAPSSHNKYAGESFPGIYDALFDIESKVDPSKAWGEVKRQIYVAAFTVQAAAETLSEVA
Procedure: Molecule concentrations ranged from 500-0 nM over 12-points at 3-fold dilution. […] Values reported in the Table 69 were generated by fitting the data to a four-parameter function for ligand binding generating values for y-min, y-max, EC50, and Hill. EC90 were calculated using the equation EC90=[…]\hat{ }(1/Hill)*EC50.
Binder B1 has an EC50 of 5 nM, an EC90 of 40 nM and a Y-max of 1.5e+06. The Y-min was 84000.
Binder B2 has an EC50 of 44 nM, an EC90 of 254 nM and a Y-max of 3.3e+06. The Y-min was 87000.
Work on B3 yielded an EC50 of 8 nM, an EC90 of 247 nM and a Y-max of 1.9e+06. For the same binder, the Y-min was 48000.
B4 gave an EC50 of 13 nM, an EC90 of 100 nM and a Y-max of 1.5e+06. It also gave a Y-min of 68000.
B5 showed an EC50 of 10 nM, an EC90 of 76 nM and a Y-max of 1.5e+06. For the same binder, the Y-min was 67000.
Work on B6 yielded an EC50 of 7 nM, an EC90 of 248 nM and a Y-max of 1.8e+06. The Y-min was 53000.

The binders below were run against T3, Human CD3 epsilon (CD3ε), on primary human pan T cells (human, UniProt P07766 23-207) (assay: flow cytometry on human T cells, anti-human IgG Fc A647 detection).
T3 construct: Endogenous CD3 in the TCR complex on T cells; also called T-cell surface glycoprotein CD3 epsilon chain; T3E
T3 sequence (P07766 23-207 limits assumed): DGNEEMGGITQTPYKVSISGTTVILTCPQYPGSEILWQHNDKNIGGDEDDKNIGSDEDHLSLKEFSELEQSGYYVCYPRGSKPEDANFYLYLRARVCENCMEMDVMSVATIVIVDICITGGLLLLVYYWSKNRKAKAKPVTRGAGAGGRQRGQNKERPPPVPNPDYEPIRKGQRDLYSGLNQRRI
Procedure: The bsAbs were assayed for their abilities bind T cells and to induce T-cell mediated cytotoxicity against H929 cells (ATCC@CRL-9068™). […] Stain buffer with no antibody was added to bottom 4 wells and assign as background control (secondary antibody alone). Parental Cris7b, CD3B695 (bivalent mAb controls) and CD3B375 (bsAb which was monovalent for Cris-7b) were added also with full dose-response curves.
Frozen T-cells were thawed in a 37° C. water bath and transferred gently into conical tube containing warm 5 mL media (RPMI+10% FBS)/1 vial of 1×10⁶ cells. Cells were mixed and centrifuged for 5 minutes at 400×g followed by resuspension in flow staining buffer, and counted and viability checked. Cells were then plated in 50 uL/50,000 cells/well into assay plates. Assay positive control mAb was added in the first column in quadruplicates at 2× at 20 nM in the bottom 4 wells. Stain buffer with no mAb was added to the top 4 wells and assigned as background controls (secondary antibody alone). Serially diluted antibody samples were added at 50 uL/well using Intergra Viaflo according to the attached plate maps and incubated for 1 hr at 37° C. After one hour incubation, 150 uL staining buffer were added to all wells, and cells were spun at 500×g for 5 minutes to pellet cells. Cells were then washed prior to addition of Alexa Fluor 647 (A647) conjugated anti human IgG Fc specific secondary detection antibody at 2 ug/mL in staining buffer. Secondary detection antibody was added at 50 uL/well to the washed cells. Plates were covered with foil and incubated for 30 minutes on ice or in the fridge. 150 uL staining buffer were added to all wells, and cells were spun at 500×g for 5 min to pellet cells. Cells were resuspended in 20 uL running buffer containing 1:1000 dilution of SYTOX™ green dead cell stain and run plates on iQue® Screener flow cytometer (Essen BioScience, Inc.). Briefly, cells were gated on FCS vs. SCS dot plot to eliminate debris. Singlets were gated on SCS-A vs SCS-H dot plot and from singlet population, live cells gated choosing BL1 channel for low/negative with SYTOX™ green viability stain (Thermo Fisher).
B7 was tested, and the EC50 was 36.9 nM.

— US20250145711A1 (Janssen / Centocor, published 2025)
